Substitutions are numbered along the chain they refer to.
T1: human GITR on naïve CD4+ T cells (human, UniProt Q9Y5U5 26-241)
T1 sequence: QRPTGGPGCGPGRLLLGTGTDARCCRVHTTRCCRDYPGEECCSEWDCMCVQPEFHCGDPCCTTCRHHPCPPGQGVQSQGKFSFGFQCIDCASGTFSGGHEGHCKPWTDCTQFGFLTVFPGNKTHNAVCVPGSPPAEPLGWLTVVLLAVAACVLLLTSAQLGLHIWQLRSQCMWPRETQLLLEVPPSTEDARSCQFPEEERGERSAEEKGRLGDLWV

T2: hGITR-hIgG (human, UniProt Q9Y5U5 26-161, limits assumed)
T2 construct: not shown: human IgG part of the fusion
T2 sequence: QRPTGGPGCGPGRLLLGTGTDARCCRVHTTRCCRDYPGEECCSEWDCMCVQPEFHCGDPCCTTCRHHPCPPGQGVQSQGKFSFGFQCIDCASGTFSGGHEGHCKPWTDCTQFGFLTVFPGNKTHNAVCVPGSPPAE

B1: 36E5 (antibody, V domains shown)
VH: EVNLVESGGGLVKPGGSLKVSCAASGFTFSSYAMSWVRQTPEKRLEWVASISSGGTTYYPDSVKGRFTISRDNARNILYLQMSSLRSEDTAMYYCARVGGYYDSMDYWGQGISVTDSS
VL: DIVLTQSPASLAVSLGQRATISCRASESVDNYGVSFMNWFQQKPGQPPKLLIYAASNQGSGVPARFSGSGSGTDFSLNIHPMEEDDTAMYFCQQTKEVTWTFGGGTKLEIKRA
notes: Parental rodent anti-human GITR monoclonal antibody from a hybridoma; kappa VL; also called 36E5.A5
B2: 1D8 (antibody, V domains shown)
VH: QVTLKESGPGILKPSQTLSLTCSFSGFSLSTSGMGVGWIRQPSGKGLEWLAHIWWDDDKYYSPSLKSQLTISKDTSRNQVFLKITSLDTADTATYYCVRSYYYGSSGAMDYWGQGTSVTVSS
VL: DIVMTQTPLSLPVSLGDQASISCRSSQSLVHSDGNTYLHWYLQKPGQSPKLLIYKVSKRFSGVPDRFSGSGSGTDFTLKISRVEAEDLGVYFCSQSTHVPPTFGGGTKLEIKR
notes: Parental rodent anti-human GITR monoclonal antibody from a hybridoma; kappa VL; also called 1D8.B5
B3: 35D8 (antibody, V domains shown)
VH: EVQLQESGPSLVKPSQTLSLTCSVTGDSITSGYWNWIRKFPGNKLEYMGYISYSGSTYYNPSLRGRISITRDTSKSQYYLQLSSVTTEDTATYYCSRRHLGSGYGWFAYWGQGTLVTVSA
VL: DIVMTQSHKFMSTSVGDRVSITCKASQDVNTAVAWYQQKPGQSPKLLIYWASTRHTGVPDRFTGSGSGTDYALTINSVQAEDLALYYCQQHSYTPPWTFGGGTKLEIRR
notes: Parental rodent anti-human GITR monoclonal antibody from a hybridoma; kappa VL; also called 35D8.B10
B4: 49A1 (antibody, V domains shown)
VH: B3 VH with L45F, Y50F, S56N, G65S, S76N, Y79F, Q81H, S83N, G101I
VL: B3 VL with D1V, V15I, S20N, N30I, T31S, Y71F, A72T, L83R, K104N, R108K
notes: Parental rodent anti-human GITR monoclonal antibody from a hybridoma; kappa VL; also called 49A1.B1
B5: 9E5 (antibody, V domains shown)
VH: QVTLKESGPGILQPSQTLSLTCTFSGFSLSTYGVGVGWIRQPSGKGLEWLANIWWDDDNYYNPSLIHRLTVSKDTSNNQAFLKITNVDTAETATYYCAQIKEPRDWFFEFWGPGTMVSVSS
VL: DIQMTQTPSSMPASLGERVTIFCRASQGVNNFLTWYQQKPDGTIKPLIFYTSNLQSGVPSRFSGSGSGTDYSLSISSLEPEDFAMYYCQQYHGFPNTFGAGTKLELKR
notes: Parental rodent anti-human GITR monoclonal antibody from a hybridoma; kappa VL; also called 9E5.C1
B6: 31H6 (antibody, V domains shown)
VH: B5 VH with N59K, I66K, H67N, V71I
VL: B5 VL with F32Y
notes: Parental rodent anti-human GITR monoclonal antibody from a hybridoma; kappa VL; also called 31H6.B7
B7: 17F10 (antibody, V domains shown)
VH: EVKLVESGGGFVKPGGSLKLSCAASGFTVRNYAMSWVRQTPEKRLEWVASISTGDRSYLPDSMKGRFTISRDNARNILYLQMSSLRSEDTAIYYCQRYFDFDSFAFWGQGTLVTVSA
VL: DIQMTQTPSSLSASLGDRVTISCRASQDINNFLNWYQQKPDGSLKLLIYYTSKLHSGVPSRFSGSGSGTDFSLTISNLDQEDVATYFCQQGHTLPPTFGGGTKLEVKR
notes: Parental rodent anti-human GITR monoclonal antibody from a hybridoma; kappa VL; also called 17F10.B1
B8: 61F6 (antibody, V domains shown)
VH: QVQLQQSGAELARPGASVKMSCKASGYTFTSYTMHWVKQRPGQGLEWIGYINPRSVYTNYNQKFKDKATLTADKSSSTAYMQLSSLTSEDSAVYYCARLGGYYDTMDYWGQGTSVTVSS
VL: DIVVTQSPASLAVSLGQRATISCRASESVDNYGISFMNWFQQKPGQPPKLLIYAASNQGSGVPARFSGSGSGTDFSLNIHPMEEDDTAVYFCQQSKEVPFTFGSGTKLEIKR
notes: Parental rodent anti-human GITR monoclonal antibody from a hybridoma; kappa VL; also called 61F6.B9; hybridoma PTA-9893

Columns and labels:
[1] = target: T1, human GITR on naïve CD4+ T cells; assay: cell-based or functional assay
[2] = target: T2, hGITR-hIgG; assay: BIAcore SPR; hGITR-hIgG capture antigen, mAb analyte
Procedure: (§1) BIAcore determinations are performed essentially as described at Example 4 of co-pending, commonly assigned U.S. patent application Ser. No. 11/511,635 (filed 29 Aug. 2006). Briefly, binding partners are immobilized on a BIAcore CM5 sensor chip using standard amine-coupling procedure. Kinetic constants for the various interactions are determined using BIAevaluation software 3.1. The Kd is determined using the calculated dissociation and association rate constants.

[3] = target: T2, hGITR-hIgG; assay: BIAcore SPR; hGITR-hIgG capture antigen, mAb analyte; apparent Kd
Procedure: as §1

[4] = target: T1, human GITR on naïve CD4+ T cells; assay: cell-based or functional assay; remark: listed apart in the source

Row | Binder | koff [2] [s⁻¹] | kon [2] [M⁻¹ s⁻¹] | Kd [3] [nM] | proliferation of naïve CD4+ T cells, mean, at 0.4 ng/mL Ab [4] | proliferation of naïve CD4+ T cells, mean, at 0.9 ng/mL Ab [4] | proliferation of naïve CD4+ T cells, mean, at 2.2 ng/mL Ab [4] | proliferation of naïve CD4+ T cells, mean, at 5.2 ng/mL Ab [4] | proliferation of naïve CD4+ T cells, mean, at 12.6 ng/mL Ab [4] | proliferation of naïve CD4+ T cells, mean, at 30.1 ng/mL Ab [4] | proliferation of naïve CD4+ T cells, mean, at 72.3 ng/mL Ab [4] | proliferation of naïve CD4+ T cells, mean, at 173.6 ng/mL Ab [4] | proliferation of naïve CD4+ T cells, mean, at 416.7 ng/mL Ab [4] | proliferation of naïve CD4+ T cells, mean, at 1000.0 ng/mL Ab [4] | further results
1 | B1 | 0.000177 | 864000 | 0.205 | – | – | – | – | – | – | – | – | – | – | proliferation of naïve CD4+ T cells, mean, at 0.04 ng/mL Ab [1]: 27500; proliferation of naïve CD4+ T cells, mean, at 0.15 ng/mL Ab [1]: 26200; proliferation of naïve CD4+ T cells, mean, at 0.61 ng/mL Ab [1]: 31000; proliferation of naïve CD4+ T cells, mean, at 2.4 ng/mL Ab [1]: 47500; proliferation of naïve CD4+ T cells, mean, at 9.8 ng/mL Ab [1]: 78700; proliferation of naïve CD4+ T cells, mean, at 39.1 ng/mL Ab [1]: 90300; proliferation of naïve CD4+ T cells, mean, at 156 ng/mL Ab [1]: 97100; proliferation of naïve CD4+ T cells, mean, at 625 ng/mL Ab [1]: 82100; proliferation of naïve CD4+ T cells, mean, at 2500 ng/mL Ab [1]: 71800; proliferation of naïve CD4+ T cells, mean, at 10000 ng/mL Ab [1]: 83800
2 | B2 | 0.000196 | 428000 | 0.458 | 60800 | 64800 | 78500 | 98200 | 115000 | 112000 | 103000 | 91000 | – | – | –
3 | B3 | 0.0002 | 801000 | 0.25 | 52300 | 50700 | 59800 | 71400 | 86200 | 95300 | 92400 | 96200 | 89800 | 97300 | –
4 | B4 | 0.000318 | 478000 | 0.665 | 54300 | 54100 | 61100 | 72200 | 86000 | 95500 | 96100 | 93600 | 86300 | 78000 | –
5 | B5 | 2.7e-05 | 2.33e+06 | 0.012 | 60100 | 60900 | 69200 | 77700 | 85700 | 83400 | 85300 | 84600 | 79700 | 83600 | –
6 | B6 | 7e-06 | 1.57e+06 | ≤ 0.005 | 58500 | 57000 | 67600 | 79600 | 90500 | 94700 | 98600 | 96900 | 86900 | 87500 | –
7 | B7 | 0.000146 | 1.31e+06 | 0.111 | 58700 | 62000 | 73400 | 77800 | 90200 | 87000 | 83500 | 87500 | 85700 | 89400 | –
8 | B8 | 0.0135 | 1.11e+06 | 12.2 | – | – | – | – | – | – | – | – | – | – | proliferation of naïve CD4+ T cells, mean, at 0.04 ng/mL Ab [1]: 34900; proliferation of naïve CD4+ T cells, mean, at 0.15 ng/mL Ab [1]: 32000; proliferation of naïve CD4+ T cells, mean, at 0.61 ng/mL Ab [1]: 37600; proliferation of naïve CD4+ T cells, mean, at 2.4 ng/mL Ab [1]: 61300; proliferation of naïve CD4+ T cells, mean, at 9.8 ng/mL Ab [1]: 96300; proliferation of naïve CD4+ T cells, mean, at 39.1 ng/mL Ab [1]: 107000; proliferation of naïve CD4+ T cells, mean, at 156 ng/mL Ab [1]: 108000; proliferation of naïve CD4+ T cells, mean, at 625 ng/mL Ab [1]: 105000; proliferation of naïve CD4+ T cells, mean, at 2500 ng/mL Ab [1]: 96300; proliferation of naïve CD4+ T cells, mean, at 10000 ng/mL Ab [1]: 93400

From patent US20120189639A1 (Merck Sharp & Dohme, published 2012)
